Test [1] deals with T1, human NKG2D-Fc (human, UniProt P26718 78-216, limits assumed).
T1 construct: also called natural NKG2D-Fc; not shown: Fc part
T1 sequence (looked up): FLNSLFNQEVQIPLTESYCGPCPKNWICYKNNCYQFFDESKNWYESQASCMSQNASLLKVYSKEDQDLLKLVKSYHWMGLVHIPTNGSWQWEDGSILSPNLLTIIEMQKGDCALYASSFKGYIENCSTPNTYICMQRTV
As to the kind of experiment: phage ELISA: phage-displayed ULBP3 α1-α2 variant titrated against NKG2D (the legend gives no form; Example 5 selected on human NKG2D-Fc). In general terms: ELISA stands for enzyme-linked immunosorbent assay.

For test [2], the target named is T1, human NKG2D-Fc. The experiment in a line: phage ELISA: phage-displayed ULBP2 α1-α2 variant titrated against NKG2D (the legend gives no form; Example 5 selected on human NKG2D-Fc).
Test [3] concerns the target T1, human NKG2D-Fc. As to the kind of experiment: ELISA: protein captured on FGFR3 detected with NKG2D-Fc.
The target in test [4] is T2, FGFR3 (plate-coated) (UniProt P22607 23-375).
T2 construct: also called Fibroblast Growth Factor Receptor 3
T2 sequence (looked up): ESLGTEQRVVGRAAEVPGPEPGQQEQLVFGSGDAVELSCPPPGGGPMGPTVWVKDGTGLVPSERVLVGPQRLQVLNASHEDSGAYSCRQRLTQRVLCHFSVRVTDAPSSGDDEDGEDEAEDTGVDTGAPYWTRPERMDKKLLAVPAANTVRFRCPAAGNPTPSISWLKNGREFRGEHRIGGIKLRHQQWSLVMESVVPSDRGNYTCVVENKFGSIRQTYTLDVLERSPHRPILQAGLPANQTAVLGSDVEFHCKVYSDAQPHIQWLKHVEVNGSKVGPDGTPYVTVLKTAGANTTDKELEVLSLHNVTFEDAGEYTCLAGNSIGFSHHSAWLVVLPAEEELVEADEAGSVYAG
As to the kind of experiment: ELISA: FGFR3 coated at 2 ug/ml, protein titrated, bound protein detected with NKG2D-Fc and anti-Fc-HRP.

In a further test the target is T3, Y152A NKG2D-Fc (human, UniProt P26718 78-216).
T3 construct: Biotinylated for the phage selections; also called non-natural Y152A NKG2D; not shown: Fc part; not described
T3 sequence (looked up): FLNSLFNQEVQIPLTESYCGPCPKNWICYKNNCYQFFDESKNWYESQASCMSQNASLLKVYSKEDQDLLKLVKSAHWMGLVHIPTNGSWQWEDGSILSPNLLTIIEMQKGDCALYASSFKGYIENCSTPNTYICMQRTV
As to the kind of experiment: phage ELISA: phage clone titrated against Y152A NKG2D.

Test [5] has as its target T4, biotinylated human NKG2D (Example 3) (human, UniProt P26718 78-216, limits assumed, biotinylated (site not stated)).
T4 construct: also called recombinant biotinylated NKG2D; surface coated biotinylated human NKG2D
T4 sequence (looked up): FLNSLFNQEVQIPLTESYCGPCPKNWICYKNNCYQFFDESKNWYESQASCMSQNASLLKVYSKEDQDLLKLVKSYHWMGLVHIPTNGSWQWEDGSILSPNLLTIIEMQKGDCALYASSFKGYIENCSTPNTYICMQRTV
As to the kind of experiment: biolayer interferometry (Octet), Kd = kOFF/kON.

For test [6], the target named is T4, biotinylated human NKG2D (Example 3). The experiment in a line: biolayer interferometry (Octet), biotinylated human NKG2D on the surface, 100 nM analyte. In general terms: BLI is a label-free optical method that tracks binding on a fibre tip over time.
For another test, the target named is T5, NKG2D on NKL cells (human, UniProt P26718 1-216).
T5 sequence (looked up): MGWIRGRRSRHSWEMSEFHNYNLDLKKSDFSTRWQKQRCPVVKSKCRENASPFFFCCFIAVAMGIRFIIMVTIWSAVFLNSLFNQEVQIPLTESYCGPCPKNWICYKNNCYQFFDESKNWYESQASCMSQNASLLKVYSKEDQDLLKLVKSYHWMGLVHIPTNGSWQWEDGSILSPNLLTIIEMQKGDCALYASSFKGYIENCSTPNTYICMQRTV
The experiment in a line: cell-based or functional assay.

Another test deals with T6, murine NKG2D-Fc (mouse, UniProt O54709 94-232, limits assumed).
T6 construct: also called mouse NKG2D-Fc; not shown: Fc part; not described
T6 sequence (looked up): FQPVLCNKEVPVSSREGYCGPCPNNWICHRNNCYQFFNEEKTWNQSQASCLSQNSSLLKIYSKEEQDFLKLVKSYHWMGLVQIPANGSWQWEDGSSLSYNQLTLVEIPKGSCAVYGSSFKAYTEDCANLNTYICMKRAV
The experiment in a line: competition ELISA: variant titrated against mouse NKG2D-Fc binding to plate-coated MICA (competitor), detected with anti-Fc-HRP.

Test [7] deals with T2, FGFR3 (plate-coated). As to the kind of experiment: ELISA: FGFR3 coated at 2 ug/ml, protein titrated, bound protein detected with NKG2D-Fc and anti-Fc-HRP. The source holds these as a separate data set.

Like-named read-outs stand apart in the source and are kept apart here.

B1: ULBP3 R162G α1-α2 domain (phage-displayed library parent) (ligand)
chain: AAEPHSLWYNFTIIHLPRHGQQWCEVQSQVDQKNFLSYDCGSDKVLSMGHLEEQLYATDAWGKQLEMLREVGQRLRLELADTELEDFTPSGPLTLQVRMSCESEADGYIRGSWQFSFDGRKFLLFDSNNRKWTVVHAGARRMKEKWEKDSGLTTFFKMVSMGDCKSWLRDFLMHRKKRLEPTAP
On to B1, for which the binding result with human NKG2D-Fc [1] is on record as “binds”.

B2: V151D (ligand)
α1-α2 domain, fused to pIII of M13 phage: AAEPHSLSYDITVIPKFRPGPRWCAVQGQVDEKTFLHYDCGNKTVTPVSPLGKKLNVTTAWKAQNPVLREVVDILTEQLRDIQLENYTPKEPLTLQARMSCEQKAEGHSSGSWQFSFDGQIFLLFDSEKRMWTTVHPGARKMKEKWENDKDVAMSFHYFSMGDCIGWLEDFLMGMDSTLEPSAGAP
Consider B2, for which the “EC50 (read off the curve)” value in the test with human NKG2D-Fc [2] is ~0.01 OD268 (phage).

B3: ULBP2-α3-iFv.2 (designed binder)
chain: EPHSLCYDITVIPKFRPGPRWCAVQGQVDEKTFLHYDCGNKTVTPVSPLGKKLNVTTAWKAQNPVLREVVDILTEQLRDIQLENYTPKEPLTLQARMSCEQKAEGHSSGSWQFSFDGQIFLLFDSEKRMWTTVHPGARKMKEKWENDKVVAMSFHYFSMGDCIGWLEDFLMGMDSTLEPSAGAPPMVQVTRSEASGGSGDRVTITCRASQDVSTAVAWYQQKPGKAPKLLIYSASFLYSGVPSRFSGSGSGTDFTLTISSLQPEDFATYYCQQSYTTPPTFGQGTKVEIKGGSSRSSSSGGGGSGGGGEVQLVESGGGLVQPGGSLRLSCAASGFTFTSTGISWVRQAPGKGLEWVGRIYPTNGSTNYADSVKGRFTISADTSKNTAYLQMNSLRAEDTAVYYCARTYGIYDLYVDYTEYVMDYWGQGTLVTVSSGGSSRSSSSGGGGSGGGGDIQMTQSPSSLSASGGSGQITVTCRASGFYPWNITLSWRQDGVSLSHDTQQWGDVLPDGQGTYQTWVATRISQGEEQRFTCYMEHSGQHSTHPVPSGKGSHHHHHH
notes: His-tagged, monomeric, insect cells; also called NKG2DL-α3-iFv.2 (ULBP2)
On to B3, for which the binding result with human NKG2D-Fc [3] is listed as “binds”. In the test with FGFR3 (plate-coated) [4], the “EC50 (read off the curve)” value is around 2 nM.

B4: MICA25.17 (ligand)
chain: EPHSLRYNLTVLSWDGSVQSGFLTEVHLDGQPFLRCDRQKCRAKPQGQWAEDVLGNKTWDRETRDLTGWGTTLLMTLAHIKDQKEGLHSLQEIRVCEIHEDNSTRSSQHFYYDGELFLSQNLETLEWTMPQSSRAQTLAMNVRNFLKEDAMETDIGYRLMRADCLSELRRYLKSGVVLRRTV
notes: Tested as phage clone (M13 pIII fusion)
On to B4, for which the “EC50 (read off the curve)” value with Y152A NKG2D-Fc was around 0.005 phage OD.

B5: MICA25.18 (ligand)
chain: EPHSLRYNLTVLSWDGSVQSGFLTEVHLDGQPFLRCDRQKCRAKPQGQWAEDVLGNKTWDRETRDLTGWGTFLRMTLAHIKDQKEGLHSLQEIRVCEIHEDNSTRSSQHFYYDGELFLSQNLETLEWTMPQSSRAQTLAMNVRNFLKEDAMETDRSGLLMRADCLSELRRYLKSGVVLRRTV
notes: as for B4
On to B5, for which the “EC50 (read off the curve)” value with Y152A NKG2D-Fc is around 0.01 phage OD.

B6: WED-MICA (ligand)
chain: EPHSLRYNLTVLSWDGSVQSGFLTEVHLDGQPFLRCDRQKCRAKPQGQWAEDVLGNKTWDRETRDLTGWGKDLRMTLAHIKDQKEGLHSLQEIRVCEIHEDNSTRSSQHFYYDGELFLSQNLETKEWTMPQSSRAQTLAMNVRNFLKEDAMETDTHYHAMHADCLQELRRYLKSGVVLRRTVPPMVQVTRSEASGGSGDRVTITCRASQDVSTAVAWYQQKPGKAPKLLIYSASFLYSGVPSRFSGSGSGTDFTLTISSLQPEDFATYYCQQSYTTPPTFGQGTKVEIKGGSSRSSSSGGGGSGGGGEVQLVESGGGLVQPGGSLRLSCAASGFTFTSTGISWVRQAPGKGLEWVGRIYPTNGSTNYADSVKGRFTISADTSKNTAYLQMNSLRAEDTAVYYCARTYGIYDLYVDYTEYVMDYWGQGTLVTVSSGGSSRSSSSGGGGSGGGGDIQMTQSPSSLSASGGSGQITVTCRASGFYPWNITLSWRQDGVSLSHDTQQWGDVLPDGQGTYQTWVATRISQGEEQRFTCYMEHSGQHSTHPVPSGKGSHHHHHH
notes: also called WED-α1-α2 domains; WED soluble MICA protein
On to B6, for which, in test [5], the “apparent Kd (pooled screen)” value came to 5.9 nM. In [6], the “apparent koff (pooled screen)” value stood at 0.0017 s⁻¹ and the “apparent kon (pooled screen)” value was found to be 290000 M⁻¹ s⁻¹.

B7: α1-α2 variant 18 (ligand)
chain: EPHSLRYNLTVLSWDGSVQPGFLTEVHLDGQPFLRCDRQKCRAKPQGQWAEDVLGNKTWDRETRDLTLWGKDLRMTLAHIKDQKEGLHSLQEIRVCEIHEDNSTRSSQHFYYDGELFLSQNLETLEWTMPQSSRAQTLAMNVRNFLKEDAMETDTHYHAMRADCLQELRRYLKSGVVLRRTVPPMVQVTRSEASGGSGDRVTITCRASQDVSTAVAWYQQKPGKAPKLLIYSASFLYSGVPSRFSGSGSGTDFTLTISSLQPEDFATYYCQQSYTTPPTFGQGTKVEIKGGSSRSSSSGGGGSGGGGEVQLVESGGGLVQPGGSLRLSCAASGFTFTSTGISWVRQAPGKGLEWVGRIYPTNGSTNYADSVKGRFTISADTSKNTAYLQMNSLRAEDTAVYYCARTYGIYDLYVDYTEYVMDYWGQGTLVTVSSGGSSRSSSSGGGGSGGGGDIQMTQSPSSLSASGGSGQITVTCRASGFYPWNITLSWRQDGVSLSHDTQQWGDVLPDGQGTYQTWVATRISQGEEQRFTCYMEHSGQHSTHPVPSGKGSHHHHHH
B7: in the test with NKG2D on NKL cells, the “NK cell-mediated lysis of FGFR3-expressing P815 target cells (calcein release, NKL cells)” value was ~15 fold more killing than WT at 0.78 nM. In addition, in the test with murine NKG2D-Fc, the “IC50 (read off the curve)” value was around 1 nM.

B8: MICA-α3-iFv.1 (designed binder)
chain: EPHSLRYNLTVLSWDGSVQSGFLTEVHLDGQPFLRCDRQKCRAKPQGQWAEDVLGNKTWDRETRDLTGNGKDLRMTLAHIKDQKEGLHSLQEIRVCEIHEDNSTRSSQHFYYDGELFLSQNLETKEWTMPQSSRAQTLAMNVRNFLKEDAMKTKTHYHAMHADCLQELRRYLKSGVVLRRTVPPMVQVTRSEASGDRVTITCRASQDVSTAVAWYQQKPGKAPKLLIYSASFLYSGVPSRFSGSGSGTDFTLTISSLQPEDFATYYCQQSYTTPPTFGQGTKVEIKGGSSRSSSSGGGGSGGGGEVQLVESGGGLVQPGGSLRLSCAASGFTFTSTGISWVRQAPGKGLEWVGRIYPTNGSTNYADSVKGRFTISADTSKNTAYLQMNSLRAEDTAVYYCARTYGIYDLYVDYTEYVMDYWGQGTLVTVSSGGSSRSSSSGGGGSGGGGDIQMTQSPSSLSASGQITVTCRASGFYPWNITLSWRQDGVSLSHDTQQWGDVLPDGQGTYQTWVATRISQGEEQRFTCYMEHSGQHSTHPVPSGKGSHHHHHH
notes: His-tagged, monomeric, made in insect cells; also called sMICA-α3-iFv.1
As for B8, the binding result with human NKG2D-Fc [3] was “binds”. For the same molecule, the “EC50 (read off the curve)” value in the test with FGFR3 (plate-coated) [7] is around 1 nM.
